Entries after “also recorded” stand apart in the source; their conditions may differ. Where two headings read alike, the source gives them in different places.
What was measured:
anesthetized rats = assay: Blood pressure in anesthetized rats after intravenous delivery; format: in vivo, rat; settings: APLNv4 60 μg/kg, SABA-APLNv2 600 μg/kg
From the text: Potential explanations for the absence of activity with the SABA-APLNv2 construct can include lessened potency due to poorer productive collision frequency, steric hindrance, or peptide-PKE annealing.

HSA = HSA (Homo sapiens, UniProt P02768)
Description: (§1) In addition, binding to albumin was carried out under various pH conditions ranging from pH 5.5 to pH 7.4.

rat serum albumin = rat serum albumin (Rattus norvegicus, UniProt P02770); assay: SABA1.2 binding to rat serum albumin; settings: up to 1 μM
rat serum albumin, sequence (P02770 25-608): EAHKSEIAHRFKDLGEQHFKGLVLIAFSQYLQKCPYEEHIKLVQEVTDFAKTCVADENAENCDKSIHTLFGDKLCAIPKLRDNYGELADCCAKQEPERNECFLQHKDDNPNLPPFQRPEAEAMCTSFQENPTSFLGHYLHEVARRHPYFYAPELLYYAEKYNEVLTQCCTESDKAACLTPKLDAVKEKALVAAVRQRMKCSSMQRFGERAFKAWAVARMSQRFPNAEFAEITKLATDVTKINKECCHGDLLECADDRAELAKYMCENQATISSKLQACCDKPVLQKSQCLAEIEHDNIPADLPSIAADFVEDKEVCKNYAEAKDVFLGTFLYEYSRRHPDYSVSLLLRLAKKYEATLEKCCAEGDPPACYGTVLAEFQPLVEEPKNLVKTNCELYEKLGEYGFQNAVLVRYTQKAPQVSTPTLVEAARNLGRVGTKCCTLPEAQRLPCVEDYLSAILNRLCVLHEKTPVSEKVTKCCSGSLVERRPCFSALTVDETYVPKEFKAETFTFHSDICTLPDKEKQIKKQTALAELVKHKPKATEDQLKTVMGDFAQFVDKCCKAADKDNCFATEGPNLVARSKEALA

[1] = Preliminary formulation screen and stability of SABA1.2
[2] = cynomolgus monkey, in vivo
Description: The pharmacokinetics and bioavailability were also evaluated in a three-week, single-dose pre-toxicology study that included both intravenous and subcutaneous administration arms.
Non-compartmental analyses using WinNonlin software were performed to evaluate pharmacokinetic parameters.

[3] = NOEL of SABA1.2 in cyno monkeys; format: in vivo; settings: IV, dosed twice weekly for 5 doses
Description: The NOEL (No observed effective level) in cyno monkeys is 30 mg/kg IV when dosed twice weekly for 5 doses. […] Thus, ample safety factors have been taken into consideration for the dosing levels in this study.”

RhSA = RhSA (Macaca mulatta, UniProt Q28522); assay: Biacore kinetics of SABAs on immobilized serum albumin: RhSA; format: binding, rhesus; settings: Rhesus albumin
RhSA, sequence (Q28522 17-600): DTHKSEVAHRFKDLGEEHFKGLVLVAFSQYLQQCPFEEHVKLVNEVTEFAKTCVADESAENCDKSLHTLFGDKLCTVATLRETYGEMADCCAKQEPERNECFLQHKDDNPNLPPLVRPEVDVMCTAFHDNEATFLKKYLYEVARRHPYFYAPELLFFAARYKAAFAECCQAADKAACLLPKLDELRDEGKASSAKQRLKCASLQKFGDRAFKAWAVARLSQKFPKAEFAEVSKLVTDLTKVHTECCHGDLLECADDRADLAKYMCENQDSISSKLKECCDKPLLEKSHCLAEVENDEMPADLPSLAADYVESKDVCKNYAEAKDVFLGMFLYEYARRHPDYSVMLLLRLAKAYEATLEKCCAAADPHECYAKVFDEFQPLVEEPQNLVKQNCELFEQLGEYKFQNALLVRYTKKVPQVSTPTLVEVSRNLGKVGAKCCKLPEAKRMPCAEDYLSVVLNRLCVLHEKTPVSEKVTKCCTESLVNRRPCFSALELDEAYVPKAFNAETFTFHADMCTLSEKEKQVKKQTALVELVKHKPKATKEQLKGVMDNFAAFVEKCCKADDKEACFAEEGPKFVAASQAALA
Description: as §1

MuSA = MuSA (Mus musculus, UniProt P07724); assay: Biacore kinetics of SABAs on immobilized serum albumin: MuSA; format: binding; settings: HBS-P buffer
MuSA, sequence (P07724 25-608): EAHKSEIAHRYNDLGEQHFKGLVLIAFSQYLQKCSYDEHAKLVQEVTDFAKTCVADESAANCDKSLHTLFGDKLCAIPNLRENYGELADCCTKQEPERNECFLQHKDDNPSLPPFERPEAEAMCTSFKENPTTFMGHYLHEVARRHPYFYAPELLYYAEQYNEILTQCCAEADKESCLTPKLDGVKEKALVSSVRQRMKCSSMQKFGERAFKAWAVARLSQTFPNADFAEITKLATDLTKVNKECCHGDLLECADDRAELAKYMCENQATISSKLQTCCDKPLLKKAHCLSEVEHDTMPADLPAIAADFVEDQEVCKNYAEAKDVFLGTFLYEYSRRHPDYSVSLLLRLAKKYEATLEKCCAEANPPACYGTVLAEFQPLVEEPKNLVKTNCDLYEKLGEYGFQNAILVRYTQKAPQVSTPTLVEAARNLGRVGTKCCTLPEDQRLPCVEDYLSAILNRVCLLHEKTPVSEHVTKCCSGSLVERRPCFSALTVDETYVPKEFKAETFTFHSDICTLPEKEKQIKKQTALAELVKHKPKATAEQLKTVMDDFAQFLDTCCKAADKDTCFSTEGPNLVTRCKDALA

Molecule: APLNv4: Apelin peptide variant fused in SABA-APLNv2 (QRPRLSHKGPMPF)
- effect on blood pressure (anesthetized rats): robust hypotensive effect

B1: SABA1.2: “core 1” 10Fn3 comprising an (ED)5 extension; SEQ ID NO: 90 (protein)
chain: MGVSDVPRDLEVVAATPTSLLISWHSYYEQNSYYRITYGETGGNSPVQEFTVPYSQTTATISGLKPGVDYTITVYAVYGSKYYYPISINYRTEIEDEDEDEDED
- kd (1/s) (HSA; Human albumin, 25° C., HBS-P buffer): 4.43 ± 0.65E−04 1/s
- kd (HSA; Human albumin, 37° C., HBS-P buffer): 0.000815 s⁻¹
- kd (HSA; Human albumin, pH 5.5, MES buffer): 0.00027 s⁻¹
- kd (HSA; Human albumin, pH 7.4, MES buffer): 0.000388 s⁻¹
- ka (HSA; pH 5.5): 9440 M⁻¹ s⁻¹
- ka (HSA; pH 7.4): 9260 M⁻¹ s⁻¹
- interaction with rat serum albumin (rat serum albumin): No measurable interaction
- protein melting temperature by DSC ([1]; 10 mM succinic acid, 8% sorbitol, 5% glycine, pH 6.0, 1.25 mg/mL protein): 75 °C
- level of aggregation after one month ([1]; 4° C.): 1.6%
- solubility in the formulation ([1]; 4° C. and ambient temperature, no precipitation or increase in aggregation): at least 20 mg/mL
- level of aggregation after one month ([1]; 25° C.): 3.8%
- initial aggregate level ([1]; formulation pH 6.0, 5 mg/mL): 1.2%
- Bioavailability (F) ([2]; 1 mg/kg): 0.7
- AUCall (hr * nmol/L) ([2]; iv, 10 mg/kg): 5,609,457 hr * nmol/L
- Vz ([2]; iv, 10 mg/kg): 0.03 L/kg
- beta T1/2 ([2]; iv, 10 mg/kg): 143 h
- AUCall (hr * nmol/L) ([2]; sc, 1 mg/kg): 251,339 hr * nmol/L
- Vz ([2]; sc, 1 mg/kg): 0.062 L/kg
- beta T1/2 ([2]; sc, 1 mg/kg): 134 h
- NOEL (No observed effective level) [3]: 30 mg/kg
- ka (RhSA; 25° C., HBS-P buffer): 6600 M⁻¹ s⁻¹
- kd (1/s) (RhSA; 25° C., HBS-P buffer): 3.78 ± 0.45E−03 1/s
- ka (RhSA; 37° C., HBS-P buffer): 18900 M⁻¹ s⁻¹
- kd (RhSA; 37° C., HBS-P buffer): 0.0185 s⁻¹
- ka (RhSA; pH 5.5, MES buffer): 7570 M⁻¹ s⁻¹
- kd (RhSA; pH 5.5, MES buffer): 0.00272 s⁻¹
- ka (RhSA; pH 7.4, MES buffer): 6160 M⁻¹ s⁻¹
- kd (RhSA; pH 7.4, MES buffer): 0.00295 s⁻¹
- binding to Mouse albumin (MuSA; 25° C., up to 1 μM): No measurable interaction; also recorded: no observable binding
- binding to Mouse albumin (MuSA; 37° C.): no observable binding

Reference: patent publication US9540424B2, “Serum albumin binding molecules” (BRISTOL-MYERS SQUIBB COMPANY, priority 2010, dated 2017)
